Data taken from IntAct's records for PubMed 19008854.

B1: Antiviral innate immune response effector IFIT1 (Homo sapiens), P09914 (parent)
chain: MSTNGDDHQVKDSLEQLRCHFTWELSIDDDEMPDLENRVLDQIEFLDTKYSVGIHNLLAYVKHLKGQNEEALKSLKEAENLMQEEHDNQANVRSLVTWGNFAWMYYHMGRLAEAQTYLDKVENICKKLSNPFRYRMECPEIDCEEGWALLKCGGKNYERAKACFEKVLEVDPENPESSAGYAISAYRLDGFKLATKNHKPFSLLPLRQAVRLNPDNGYIKVLLALKLQDEGQEAEGEKYIEEALANMSSQTYVFRYAAKFYRRKGSVDKALELLKKALQETPTSVLLHHQIGLCYKAQMIQIKEATKGQPRGQNREKLDKMIRSAIFHFESAVEKKPTFEVAHLDLARMYIEAGNHRKAEENFQKLLCMKPVVEETMQDIHFHYGRFQEFQKKSDVNAIIHYLKAIKIEQASLTRDKSINSLKKLVLRKLRRKALDLESLSLLGFVYKLEGNMNEALEYYERALRLAADFENSVRQGP
partner: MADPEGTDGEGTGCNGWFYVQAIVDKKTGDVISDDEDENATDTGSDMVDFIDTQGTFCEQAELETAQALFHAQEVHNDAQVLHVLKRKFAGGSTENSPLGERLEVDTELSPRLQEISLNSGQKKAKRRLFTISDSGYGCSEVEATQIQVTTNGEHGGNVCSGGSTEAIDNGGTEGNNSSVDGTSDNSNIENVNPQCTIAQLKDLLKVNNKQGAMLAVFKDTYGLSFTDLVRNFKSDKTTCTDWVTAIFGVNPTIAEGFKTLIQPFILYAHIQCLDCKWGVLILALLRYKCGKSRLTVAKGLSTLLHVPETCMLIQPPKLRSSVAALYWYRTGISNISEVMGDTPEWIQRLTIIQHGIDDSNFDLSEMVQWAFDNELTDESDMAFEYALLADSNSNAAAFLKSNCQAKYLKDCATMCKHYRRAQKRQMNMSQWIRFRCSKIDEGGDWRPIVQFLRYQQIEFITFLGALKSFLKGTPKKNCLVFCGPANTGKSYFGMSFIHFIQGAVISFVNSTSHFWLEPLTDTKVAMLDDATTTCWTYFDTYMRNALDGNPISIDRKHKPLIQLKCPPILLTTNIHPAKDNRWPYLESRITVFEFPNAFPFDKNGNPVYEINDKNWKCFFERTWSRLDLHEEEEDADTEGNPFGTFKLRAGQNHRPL

Variants of: B1
Details: with ve1_hpv18 E1, P06789

Variant	effect of a mutation on the interaction
A114T	disrupting interaction
L118R	disrupting interaction
V121E	disrupting interaction
